Measured values reported in US20230183177A1, “ENANTIOSELECTIVE CHEMO-ENZYMATIC SYNTHESIS OF OPTICALLY ACTIVE AMINO AMIDE COMPOUNDS” (priority 2020, published 2023).

How the values were obtained:
[1] = Biocatalytic conversions with target substrate rac-1 by NHase-CFE or cells, chiral HPLC analysis; assay type: biochemical; conditions: for conversion / e.e. for (S): bioconversion of 100 mM rac-1; for conversion [%]: 300 rpm overnight; for eeP [%]: excess of (S); for Conv. [%]: NHase-CFE, overnight
[2] = Substrate stability experiments: decomposition of rac-1 at different pH (Feigl-Anger paper, HPLC); assay type: physicochemical
Method: . In addition, the substrate was dissolved in ethanol as control. 100 μL of the rac-1 solutions were pipetted into a 96-well micro titer plate and covered with Feigl-Anger filter paper. Color development was documented by taking pictures (see FIG. 3).
To investigate the velocity of rac-1 decomposition at different pH, rac-1 was dissolved in different buffer, ranging from pH 5 to pH 10, and extracted immediately, after 2 and after 60 min, respectively, with 1 volume ethyl acetate. Extracts were dried over Na2SO4 and the supernatant evaporated using a vacuum centrifuge. The remaining substances (including rac-1) were dissolved in 100 μL of ethanol.
(R)- and (S)-1 were separated by a Chiralpak AD-H using n-heptane and ethanol in a ratio 90:10 as the mobile phase, at a flow rate of 1 mL/min for 8 min. The compounds were detected at 210 nm (DAD). Retention times of (R)- and (S)-1 were 4.2 min and 4.7 min, respectively.

## CCC(C#N)N1CCCC1 (racemic) [rac-1, 2-(Pyrrolidin-1-yl)butanenitrile]
[1]
  conversion: 29.3%
  e.e. for (S): 92.8%
[2]; pH 5, 2 min
  Percent (HPLC peak area vs zero value): 57%
[2]; pH 5, 1 hour
  Percent (HPLC peak area vs zero value): 32%
[2]; pH 6, 2 min
  Percent (HPLC peak area vs zero value): 54%
[2]; pH 6, 1 hour
  Percent (HPLC peak area vs zero value): 23%
[2]; pH 6.5, 2 min
  Percent (HPLC peak area vs zero value): 47%
[2]; pH 6.5, 1 hour
  Percent (HPLC peak area vs zero value): 22%
[2]; pH 7, 2 min
  Percent (HPLC peak area vs zero value): 57%
[2]; pH 7, 1 hour
  Percent (HPLC peak area vs zero value): 44%
[2]; pH 7.5, 2 min
  Percent (HPLC peak area vs zero value): 66%
[2]; pH 7.5, 1 hour
  Percent (HPLC peak area vs zero value): 50%
[2]; pH 9, 2 min
  Percent (HPLC peak area vs zero value): 83%
[2]; pH 9, 1 hour
  Percent (HPLC peak area vs zero value): 87%
[2]; pH 10, 2 min
  Percent (HPLC peak area vs zero value): 78%
[2]; pH 10, 1 hour
  Percent (HPLC peak area vs zero value): 86%

## CC[C@@H](C(N)=O)N1CCCC1=O [compound 4, (S)-2-(2-oxopyrrolidin-1-yl)butane amide, reference compound]
[1]
  conversion: 51.8%
  e.e. for (S): 92.1%

B1: KoNHase: nitrile hydratase from Klebsiella oxytoca (protein, listed as Klebsiella oxytoca)
alpha: MSHKHDHDHTHPPVDIELRVRALESLLQEKGLIDPAALDELIDTYEHKVGPRNGAQVVARAWSDPEYKRRLMENATAAIAELGFSGIQGEDMLVVENTPDVHNVTVCTLCSCYPWPVLGLPPVWYKSAPYRSRIVIDPRGVLAEFGLHIPENKEIRVWDSSAELRYLVLPERPAGTEGWSEAQLSELITRDSMIGTGVVSAP
beta: MNGIHDLGGMHGLGPIPTEENEPYFHHEWERRVFPLFASLFVGGHFNVDEFRHAIERMAPTEYLQSSYYEHWLHAFETLLLAKGAITVEELWGGAKPAPCKPGTPVLTQEMVSMVVSTGGSARVSHDVAPRFRVGDWVRTKNFNPTTHTRLPRYARDKVGRIEIAHGVFITPDTAAHGLGEHPQHVYSVSFTAQALWGEPRPDKVFIDLWDDYLEEA
[1]
  enantioselectivity for (S)-2: 78%
[1]; Table 4: 10 mM rac-1, NHase-CFE, 500 μL, pH 7.2, 25° C.
  conversion [%]: 5.3%
[1]; Table 5: 10 mM rac-1, NHase-CFE, pH 7.2, 37° C.
  conversion [%]: 4.4%
[1]; Table 5: 10 mM rac-1, NHase-CFE, pH 7.2, 50° C.
  conversion [%]: 3.8%
[1]; Table 5: 37° C., —^a: only (S)-amide was detected
  eeP [%]: 83 (S) %
[1]; Table 5: 50° C., —^a: only (S)-amide was detected
  eeP [%]: 78 (S) %
[1]; Table 6: 10 mM substrate, 25° C., pH 7.2
  Conv. [%]: 5.3%
[1]; Table 6: 10 mM substrate
  eeP [%]: 79 (S) %
[1]; Table 6: 50 mM substrate, 25° C., pH 7.2
  Conv. [%]: 6.2%
[1]; Table 6: 50 mM substrate
  eeP [%]: 79 (S) %
[1]; Table 6: 100 mM substrate, 25° C., pH 7.2
  Conv. [%]: 2.6%
[1]; Table 6: 100 mM substrate
  eeP [%]: 75 (S) %
[1]; pH 7.2
  Enantioselectivity eeP [%]: 79 (S) %
[1]; time study: 20 mM substrate, CFE, 25° C., pH 7.2
  enantiomeric excess of the product for (S)-2: 81%
1 or 2 mM CoCl2, 2 h, 25° C.
  activity after cobalt pre-incubation: lower activity than the control reaction
NHase-CFE, 114 mM substrate, pH 7.2, 25° C.
  activity towards methacrylonitrile (MAN) hydrolysis: high activity
Incubated at pH 9 or 9.5, 25° C., then MAN assay
  stability after longer incubation at high pH: loses activity with time at pH 9.5
Methacrylonitrile hydration, carbonate buffer pH 10
  activity at high pH: still active at pH 10
pH 8
  thermal stability at 37° C.: seem stable
